Assay results reported in the supplement of paper PMC12042874.
± gives the uncertainty stated by the source.

Test: amyloid nucleation score (Sup35N fusion, yeast selection) (log enrichment); library NNK2; higher = more nucleation; inactive = no reads after selection
Outline: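 Yeast lacking psi expressed peptides of 20 random codons fused to Sup35N, received 100 μM copper sulfate for 24 hours, and were then grown for 7 days at 30°C on medium lacking adenine and uracil. Illumina sequencing of input and output plasmid inserts provided the reads. Nucleation scores are DiMSum log enrichments of output over input, centred on the mode of non-aggregating sequences. Any sequence with under 100 input reads was excluded.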

Substance | amyloid nucleation score
AYLQGSLMEKICKISCPVDN | -0.387 ± 1.1
AYMKYHAIRLNARFCGS | 3.53 ± 0.075
AYMYTMGYRSHHVTEVVVIW | -0.047 ± 0.49
AYRVWRRGVEMMRNPFLPVA | 3.6 ± 0.064
AYYYVLRFRCLFTFYPQLTA | -0.428 ± 0.39
CAFVGKVSTARLVSSRNSFN | 5.801 ± 0.045
CAKCVMCSNCPKNSGRILYR | -1.12 ± 1.1
CATSISMLEHQ | 0.556 ± 0.2
CCCGRMTSVHVDKPDLYLPL | -0.047 ± 1.1
CCDRSAPAT | -0.12 ± 0.54
CCFCFDNLIIPRDCYANSDN | 6.734 ± 0.03
CCLYYHMIKAWDTTGVRLVN | -1.4 ± 0.78
CCNMTHYDFSGYNDGAMQDC | -0.424 ± 0.76
CCWLAMRVRFTMASKLPNFE | 3.34 ± 0.083
CCWRSNSRNTNVIPNLSLFR | 3.94 ± 0.04
CDILPDLPGRFALVRKASHN | 1.11 ± 0.45
CDMPLKLWTLAVLPLDVPYR | 0.179 ± 0.49
CDPFYTSLGCSSN | 2.85 ± 0.2
CDPWQGYRWLP | -0.665 ± 0.37
CDRLSVNHFKEAGVQGSLSE | 0.851 ± 0.21
CDVRSPSF | -1.02 ± 0.3
CDYYLFLCIYRSQNVGTEGG | 6.783 ± 0.063

Substance | amyloid nucleation score
CECLRDESER | 2.1 ± 0.29
CEEHDFMTSFICIAWAWKWL | -0.66 ± 0.48
CEISFVFIWILIVFNNVDPD | inactive
CELEGWSVGSRVNLLILIR | -0.213 ± 1.1
CESPLSYWWRSRSLFSLCVE | -0.359 ± 0.55
CEYYVHLRY | -0.702 ± 0.49
CFAIFWLFECTTSSMKMTRV | 0.053 ± 1.1
CFAYSSWDTPDMMAWVCRWD | 0.154 ± 0.65
CFFSNQMADGYPQRWAVLRD | 4.94 ± 0.054
CFGYWHSVRARCLRKVGHRT | 0.546 ± 0.38
CFIFKCKKCHLYPMDSVICQ | inactive
CFIFKWFYYCLSVSTIDMSV | -2.48 ± 1.1
CFIPLGVNFGDRTWLTVRIR | 0.357 ± 0.41
CFMAVQI | inactive
CFQYTQTNVMRFSYGIGHRE | 2.12 ± 0.18
CFSCLISWADMNSLLCYLEL | -1.66 ± 0.48
CGCHCVYSPYYCFLTYWCAN | -0.542 ± 0.76
CGFFVNEFTDLAWSYSLAVN | -0.117 ± 0.74
CGKCSVCG | 0.502 ± 0.27
CGLKDTTKLAVDVTPQNM | 0.908 ± 0.3
CGMFWLSRYEFYRISSCRRL | 1.3 ± 0.14
CGQRCPKC | 3.81 ± 0.063

Substance | amyloid nucleation score
CHNYELCCRLFNSFSTNQIA | -0.468 ± 0.29
CHQCVNERFESKREPVPDHS | 0.421 ± 0.45
CHWSTGRYRDVMICVLWGIS | -0.049 ± 0.34
CHYRMVVKRYTFEHYAFYVG | -0.782 ± 0.61
CIFCYANVFAYFTTKGLFVQ | -0.885 ± 0.38
CIFILTD | -1.67 ± 0.45
CIGIWDAIEVVENREL | -0.545 ± 0.64
CIKVCALGCVDGVLVWERRW | 0.538 ± 0.27
CILGENYRIQSTDAHKGVSR | -0.205 ± 0.19
CILLPKVSCCCKGLICCDFV | 0.186 ± 0.34
CIRAECVKLYL | 6.11 ± 0.087
CISVVFVRHNGNFVSFNELV | 6.412 ± 0.05
CISWL | inactive
CIYKS | -1.36 ± 0.75
CKKEVL | inactive
CKSLLVKC | inactive
CKSSGGWNVEMWSVK | -0.399 ± 0.41
CKYFLLVFIVVNYFGLGPMP | inactive
CLAFLGLLKSFMITKGW | -1.49 ± 0.78
CLCCKLVYASNIEIGDYMGF | 6.216 ± 0.034
CLEHHNIWVILLVER | -0.207 ± 0.63
CLFRLSSCVPTWLMQLTMWG | 0.244 ± 0.25

Substance | amyloid nucleation score
CLFYRCCMHDPRSLLEKGRP | 5.835 ± 0.037
CLGGTLYLRCFIVDLLWSTG | -0.219 ± 0.55
CLLNVTEAFTGGSMIGWHFR | 5.393 ± 0.049
CLLYDQGFWQAGVLNVVAAR | -0.085 ± 0.29
CLNRLFHTPGDGDNYCRAIL | 0.34 ± 0.5
CLSASTALREGFWNPWRCGS | 0.164 ± 0.8
CLSCGLRTEDLYWDTRICSD | 1.18 ± 0.29
CLVAQNVTVMVSGV | 5.94 ± 0.065
CLVDGLANVHVYRENLGF | -0.841 ± 0.29
CLWHWSNGRNVGKIYLFAVT | -0.377 ± 0.24
CLYMRFAFHLPELRALTKSP | 0.094 ± 0.77
CMDQNVEPCSLVWQTYFPCY | -0.419 ± 0.6
CMESRCFEL | 0.438 ± 0.56
CMFEFHGVAVGLMRVFHRLW | 5.23 ± 0.062
CMFPSVCQPLTGMTVYGNST | -0.084 ± 0.48
CMGGQQPALGISSFTVVWLY | inactive
CMKMSWFRTRSTYSIEALHS | 0.037 ± 0.41
CMPPRLWMW | -0.137 ± 1.1
CMRCILASCK | -0.348 ± 0.34
